Measured values taken from US7314724B2, “Therapeutic applications of laminin and laminin-derived protein fragments” (University of Washington, priority 1996, dated 2008).
“Also recorded” adds a separate entry of the source.

Assays:
[1] = target: T1, Aβ (1-40) (Homo sapiens, UniProt P05067); test: Thioflavin T fluorometry, Aβ (1-40) amyloid fibril formation; assay type: biochemical; conditions: for dose dependence of inhibition of Aβ fibril formation, in words: 5 nM, 15 nM, 40 nM and 100 nM laminin, 1 week (FIG. 4); for fold inhibition of Aβ (1-40) amyloid fibril formation (fluorescence lower than Aβ alone): 37° C.; for fold decrease of Aβ fibrillogenesis: comparison study (FIG. 3); for inhibition of Aβ fibril formation, in words: dose study (FIG. 4), 3 days and 7 days
T1 construct: 2 μg of Aβ (1-40)(Bachem Inc., Torrance, Calif. USA; Lot #WM365); purchased Bachem Inc., Torrance, Calif; Lot #WM365
Protocol: The effects of laminin on Aβ fibrillogenesis was also determined using the previously described method of Thioflavin T fluorometry (Naiki et al, Lab. Invest. 65:104-110, 1991; Levine III, Protein Sci. 2:404-410, 1993; Levine III, Int. J. Exp. Clin. Invest. 2:1-6, 1995; Naiki and Nakakuki, Lab. Invest. 74:374-383, 1996). In this assay, Thioflavin T binds specifically to fibrillar amyloid and this binding produces a fluorescence enhancement at 480 nm that is directly proportional to the amount of amyloid fibrils formed (Naiki et al, Lab. Invest. 65:104-110, 1991; Levine III, Protein Sci. 2:404-410, 1993; Levine III, Int. J. Exp. Clin. Invest. 2:1-6, 1995; Naiki and Nakakuki, Lab. Invest. 74:374-383, 1996). In a first study, the effects of EHS laminin on Aβ (1-40) fibrillogenesis was assessed. For this study, 25 μM of freshly solubilized Aβ (1-40)(Bachem Inc., Torrance, Calif., USA; Lot #WM365) was incubated in microcentrifuge tubes at 37° C. for 1 week (in triplicate), either alone, or in the presence of 100 nM EHS laminin (Sigma Chemical Company, St. Louis, Mo., USA) in 100 mM Tris, 50 mM NaCl, pH 7.0 (TBS). 100 nM of laminin utilized for these studies represented a Aβ:laminin molar ratio of 250:1. 50 μl aliquots were then taken from each tube for analysis at 1 hr, 1 day, 3 days, and 1 week. In a second set of studies, the effects of laminin on Aβ (1 -40) fibril formation was directly compared to other basement membrane components including fibronectin, type IV collagen and perlecan. For these studies, 25 μM of freshly solubilized Aβ (1-40) was incubated in microcentrifuge tubes for 1 week (in triplicate) either alone, or in the presence of 100 nM of EHS perlecan (isolated as previously described)(Castillo et al, J. Biochem. 120:433-444, 1996), fibronectin (Sigma Chemical Company, St. Louis, Mo., USA) or type IV collagen (Sigma Chemical Company, St. Louis, Mo., USA). 50 ul aliquots were then taken for analysis at 1 hour, 1 day, 3 days and 1 week. In a third set of studies, 25 μM of freshly solubilized Aβ (1-40) was incubated in microcentrifuge tubes for 1 week (in triplicate) either alone, or in the presence of increasing concentrations of laminin (i.e. 5 nM, 15 nM, 40 nM and 100 nM). 50 μl aliquots were taken for analysis at 1 hour, 1 day, 3 days and 1 week.
For each determination described above, following each incubation period, Aβ peptides +/− laminin, perlecan, fibronectin or type IV collagen, were added to 1.2 ml of 100 μM Thioflavin T (Sigma Chemical Co., St. Louis, Mo.) in 50 mM phosphate buffer (pH 6.0). Fluorescence emission at 480 nm was measured on a Turner instrument-model 450 fluorometer at an excitation wavelength of 450 nm. For each determination, the fluorometer was calibrated by zeroing in the presence of the Thioflavin T reagent alone, and by seting the 50 ng/ml riboflavin (Sigma Chemical Co., St. Louis, Mo.) in the Thioflavin T reagent to 1800 fluorescence units. All fluorescence determinations were based on these references and any background fluorescence given off by laminin, perlecan, type IV collagen, or fibronectin alone in the presence of the Thioflavin T reagent was always subtracted from all pertinent readings.

[2] = target: T2, islet amyloid polypeptide (amylin) (Homo sapiens, UniProt P10997); test: Thioflavin T fluorometry, islet amyloid polypeptide (amylin) fibril formation; assay type: biochemical
T2 construct: The major protein in islet amyloid is a 37 amino acid peptide, termed islet amyloid polypeptide or amylin
T2 sequence (P10997 34-70): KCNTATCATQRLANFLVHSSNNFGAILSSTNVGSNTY

T1 sequence (P05067 672-711 limits assumed): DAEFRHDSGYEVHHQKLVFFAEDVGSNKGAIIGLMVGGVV

Question: Which results are given for “laminin: Engelbreth-Holm-Swarm (EHS) mouse tumor laminin (Sigma); 850 kDa basement membrane glycoprotein of A, B1 and B2 chains”?
Answer: dose dependence of inhibition of Aβ fibril formation, in words [1]: dose-dependent manner; also recorded: Significant dose-dependent inhibition; dose dependence of inhibition of Aβ fibril formation, in words ([1]; listed as Laminin): dose-dependent manner; fold inhibition of Aβ (1-40) amyloid fibril formation (fluorescence lower than Aβ alone) ([1]; 25 μM Aβ (1-40), 100 nM laminin, 1 week (FIG. 2)): 27.1 fold; fold inhibition of Aβ (1-40) amyloid fibril formation (fluorescence lower than Aβ alone) ([1]; 25 μM Aβ (1-40), 100 nM laminin, 1 hour (FIG. 2)): 2.9 fold; fold inhibition of Aβ (1-40) amyloid fibril formation (fluorescence lower than Aβ alone) ([1]; 25 μM Aβ (1-40), 100 nM laminin, 1 day (FIG. 2)): 4.6 fold; fold inhibition of Aβ (1-40) amyloid fibril formation (fluorescence lower than Aβ alone) ([1]; 25 μM Aβ (1-40), 100 nM laminin, 3 days (FIG. 2)): 30.6 fold; effect on Aβ (1-40) fibrillogenesis, in words ([1]; comparison of basement membrane components (FIG. 3), 25 μM Aβ (1-40), 100 nM, 1 hour to 1 week): potent inhibitory effect; fold decrease of Aβ fibrillogenesis ([1]; 25 μM Aβ (1-40), 100 nM, 1 week): 21 fold; fold decrease of Aβ fibrillogenesis ([1]; 25 μM Aβ (1-40), 100 nM, 1 day): 9 fold; fold decrease of Aβ fibrillogenesis ([1]; 25 μM Aβ (1-40), 100 nM, 3 days): 9 fold; inhibition of Aβ fibril formation, in words ([1]; 40 nM laminin): significantly inhibited; inhibition of Aβ fibril formation, in words ([1]; 100 nM laminin, 1 hour, 1 day): significantly inhibited; inhibition of amylin fibrillogenesis, in words ([2]; 40 nM, 15 nM and 5 nM laminin, 1 week (FIG. 6)): no significant inhibition; inhibition of amylin fibril formation, in words ([2]; 100 nM laminin, all time points within 1 week (FIG. 6)): did not significantly inhibit; also recorded: does not significantly inhibit
